# In publication PMC12364344:
# Biological target: His6-BacA_(F134R), purified (Asticcacaulis biprosthecum)
# Assay: SEC; 500 µl of purified proteins from the polymerization assay on Superdex 200 Increase 10/300 GL, column calibrated with standard proteins
substance,measurement,value
"His6-BacA_(F134R), purified (natural protein)",stoichiometry N,2
